Experimental data from US6699656B2, “Treatment and prevention of HIV infection by administration of derivatives of human chorionic gonadotropin” (University of Maryland Biotechnology Institute, priority 1996, dated 2004).

B1: partially purified native β-hCG (NβhCG): partially purified native β-hCG dissociated from hCG, Sigma (protein, UniProt P0DN86 21-165, looked up)
Choriogonadotropin subunit …: SKEPLRPRCRPINATLAVEKEGCPVCITVNTTICAGYCPTMTRVLQGVLPALPQVVCNYRDVRFESIRLPGCPRGVNPVVSYAVALSCQCALCRRSTTDCGGPKDHPLTCDDPRFQDSSSSKAPPPSLPSPSRLPGPSDTPILPQ
B2: recombinant β-hCG: purified recombinant β-chain of hCG (protein, UniProt P0DN86 21-165, looked up)
Choriogonadotropin subunit …: B1 Choriogonadotropin subunit …
B3: β-hCG: β-subunit of hCG as reported in the literature (protein, UniProt P0DN86 21-165, looked up)
Choriogonadotropin subunit …: B1 Choriogonadotropin subunit …

Legend:
[1] = test system: HIV-1; conditions: p24 antigen days 3 to 10; peptides 0.05 to 50 nmoles/ml, hCG 0.01 to 1,000 IU, native β-hCG 100 to 1,000 μg
Description: Sequences of the peptides are as follows:
HIV-1 infected cells were treated with the above preparations and the virus was measured.

[2] = test system: hematopoietic progenitor cells; test: Hematopoietic progenitor colony assays (CFU-MIX, BFU-e, CFU-GM); type: cell-based; conditions: bone marrow and cord blood; hCG 200 IU/ml, peptides and subunits 100 μg/ml; 10 days
From the text: Hematopoietic progenitor cells (2×10^5 cell/ml) were isolated from normal bone marrow and cord blood and seeded in methylcellulose. […] Aggregates containing more than 50 cells after 10 days of culture were counted as colonies.

[3] = test system: KS Y-1 or KS-SLK cells; test: KS clonogenic assay; type: cell-based, human; conditions: 2 KS cell lines; peptides 50 nmoles/ml, CR127 2 nmoles/ml; 10 days
Description: Briefly, the KS Y-1 cells were obtained from mononuclear cells isolated from pleural effusion of an AIDS patient with KS involving the lungs. After the depletion of T lymphocytes, monocytes/macrophages and fibroblasts by the cytotoxicity method, using monoclonal antibodies against CD2, CD3, CD4, CD8, CD10 and CD14 membrane antigens and baby rabbit complement, the cells were cultured in the absence of exogenous growth factors to select for transformed cells.

[4] = test system: Kaposi's Sarcoma; conditions: literature; cited from earlier work
[5] = test system: HIV-1; conditions: higher doses increased viral production; cited from earlier work

Molecule | inhibition of HIV-1 infection/replication in acutely infected cells [1] | growth of hematopoietic progenitors (colonies) [2] | anti-KS effect in clonogenic assays (number of colonies) [3] | efficacy in the treatment of Kaposi's Sarcoma [4] | doses reducing HIV production in monocytes [5] [µg/mL]
B1 | active | directly promoted | – | – | –
B2 | not to be active | – | no anti-KS effect | – | –
B3 | – | – | – | efficacious | ≤ 10
